Source: paper PMC8673838, “MCPH1 inhibits Condensin II during interphase by regulating its SMC2-Kleisin interface” (eLife, 2021)

How the values were obtained:
MCPH1 1-435-MBP = biological target: T1, MCPH1 1-435-MBP (Homo sapiens, UniProt Q8NEM0 1-435); test: EMSA; 50 nM DNA; EMSA with 50 nM 5'-Cy5 50 bp dsDNA; EMSA buffer, salt, pH and temperature not given in the material; conditions: protein: recombinant; tags: N-term 6xHis, C-term MBP; label: 5' Cy5; blunt
T1 sequence: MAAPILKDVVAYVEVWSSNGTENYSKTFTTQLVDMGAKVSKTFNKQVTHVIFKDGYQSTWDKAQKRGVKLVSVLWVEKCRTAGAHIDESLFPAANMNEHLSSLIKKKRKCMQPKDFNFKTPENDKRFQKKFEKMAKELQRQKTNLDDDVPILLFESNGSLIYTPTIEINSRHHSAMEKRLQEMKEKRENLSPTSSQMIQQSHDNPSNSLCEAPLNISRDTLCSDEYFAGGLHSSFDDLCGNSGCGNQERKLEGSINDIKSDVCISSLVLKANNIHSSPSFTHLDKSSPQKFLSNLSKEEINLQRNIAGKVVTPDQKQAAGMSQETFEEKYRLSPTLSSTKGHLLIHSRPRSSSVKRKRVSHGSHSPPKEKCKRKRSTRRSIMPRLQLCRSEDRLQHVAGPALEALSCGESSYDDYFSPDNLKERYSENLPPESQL

[1] = biological target: condensin II pentamer;MCPH1 1-435-MBP (Homo sapiens;Homo sapiens, UniProt O95347;Q9NTJ3;Q6IBW4;P42695;Q86XI2;Q8NEM0 …, |); test: EMSA; condensin II bands shifted upward with MCPH1 1-435-MBP; EMSA with 50 nM 5'-Cy5 50 bp dsDNA; EMSA buffer, salt, pH and temperature not given in the material; conditions: protein: recombinant;recombinant; tags: Strep tag;N-term 6xHis, C-term MBP; copies: 1;1;1;1;1;1; label: 5' Cy5; blunt
condensin II pentamer = condensin II pentamer (Homo sapiens, UniProt O95347;Q9NTJ3;Q6IBW4;P42695;Q86XI2 1-1197;1-1288;1-605;1-1498;1-1143); test: EMSA; with MBP control or without peptide; EMSA with 50 nM 5'-Cy5 50 bp dsDNA; EMSA buffer, salt, pH and temperature not given in the material; conditions: protein: recombinant; tags: Strep tag; copies: 1;1;1;1;1; label: 5' Cy5; blunt
[2] = biological target: T2, NCAPG2 subunit of human condensin II (human, UniProt Q86XI2 1-1143); test: pull-down; strep-tagged condensin complexes (0.1 µM) with at least a 10-fold molecular excess of MBP MCPH1 constructs or MBP, Strep-tactin sepharose, 20 mM Tris pH 7.5, 150 mM NaCl, 10 % glycerol, 1 mM DTT; five washes; Coomassie or silver stain; conditions: both partners purified
T2 construct: NCAPG2, human, HAWK subunit of condensin II; Never tested alone: the contact is drawn from complexes with and without this subunit; source: insect cells, as a subunit of purified condensin II (Kong et al., 2020)
T2 sequence (looked up): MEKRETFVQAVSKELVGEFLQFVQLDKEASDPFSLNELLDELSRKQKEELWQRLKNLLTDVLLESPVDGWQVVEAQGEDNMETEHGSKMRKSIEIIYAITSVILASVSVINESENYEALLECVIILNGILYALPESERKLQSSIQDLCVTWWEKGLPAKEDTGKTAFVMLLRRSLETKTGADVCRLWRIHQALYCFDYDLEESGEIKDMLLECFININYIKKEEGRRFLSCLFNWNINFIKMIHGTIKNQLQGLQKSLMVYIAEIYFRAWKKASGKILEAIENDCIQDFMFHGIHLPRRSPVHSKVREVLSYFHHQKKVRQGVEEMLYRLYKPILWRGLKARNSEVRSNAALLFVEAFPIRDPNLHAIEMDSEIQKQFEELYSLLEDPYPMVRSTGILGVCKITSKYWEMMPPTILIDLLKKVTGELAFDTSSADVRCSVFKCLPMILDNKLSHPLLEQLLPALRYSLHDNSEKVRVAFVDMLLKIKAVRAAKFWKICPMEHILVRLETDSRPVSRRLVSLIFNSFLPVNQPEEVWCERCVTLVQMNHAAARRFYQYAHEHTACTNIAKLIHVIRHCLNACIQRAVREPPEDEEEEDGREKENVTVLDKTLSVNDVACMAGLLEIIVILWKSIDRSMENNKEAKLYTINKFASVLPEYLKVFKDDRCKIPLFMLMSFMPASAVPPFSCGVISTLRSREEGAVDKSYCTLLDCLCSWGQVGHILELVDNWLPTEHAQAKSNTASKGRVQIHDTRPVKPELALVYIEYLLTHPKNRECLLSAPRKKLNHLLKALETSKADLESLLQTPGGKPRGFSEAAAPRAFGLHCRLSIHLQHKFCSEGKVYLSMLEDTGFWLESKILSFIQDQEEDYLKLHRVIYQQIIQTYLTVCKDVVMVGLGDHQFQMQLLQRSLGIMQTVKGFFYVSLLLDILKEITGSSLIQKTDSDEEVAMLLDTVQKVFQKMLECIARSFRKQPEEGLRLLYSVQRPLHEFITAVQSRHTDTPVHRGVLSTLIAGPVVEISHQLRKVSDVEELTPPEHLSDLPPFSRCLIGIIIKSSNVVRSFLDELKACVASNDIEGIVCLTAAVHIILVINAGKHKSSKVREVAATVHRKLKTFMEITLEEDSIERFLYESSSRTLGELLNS

[3] = biological target: T3, tetrameric condensin II lacking NCAPD3 (human, UniProt O95347 1-1197; Q9NTJ3 1-1288; Q6IBW4 1-605; Q86XI2 1-1143); test: as above; conditions: both partners purified
T3 construct: SMC2, human; SMC4, human; NCAPH2, human; NCAPG2, human; also called tetrameric condensin II lacking the CAP-D3 subunit; source: insect cells, purified as previously described (Kong et al., 2020); copies: + + +

[4] = biological target: T4, human condensin II pentameric complex (SMC2, SMC4, NCAPH2, NCAPD3, NCAPG2) (human, UniProt O95347 1-1197; Q9NTJ3 1-1288; Q6IBW4 1-605; P42695 1-1498; Q86XI2 1-1143); test: native gel or EMSA; condensin II at increasing concentrations with MCPH1_(1-435)-MBP, MBP or 1 µM 5-FAM peptide and 50 nM Cy5-labelled 50 bp dsDNA; 15 min on ice; 2 % agarose, 0.5 x TBE; conditions: both partners purified
T4 construct: SMC2, human, subunit of condensin II; SMC4, human, subunit of condensin II; NCAPH2, human, kleisin subunit of condensin II; NCAPD3 (CAP-D3), human, HAWK subunit of condensin II; NCAPG2 (CAPG2), human, HAWK subunit of condensin II; It says only 'strep-tagged condensin II'; also called pentameric condensin II; strep-tagged condensin II; source: insect cells, purified as previously described (Kong …)

Measured: binding result

T3 sequence (O95347 whole entry, chain 1 of 3): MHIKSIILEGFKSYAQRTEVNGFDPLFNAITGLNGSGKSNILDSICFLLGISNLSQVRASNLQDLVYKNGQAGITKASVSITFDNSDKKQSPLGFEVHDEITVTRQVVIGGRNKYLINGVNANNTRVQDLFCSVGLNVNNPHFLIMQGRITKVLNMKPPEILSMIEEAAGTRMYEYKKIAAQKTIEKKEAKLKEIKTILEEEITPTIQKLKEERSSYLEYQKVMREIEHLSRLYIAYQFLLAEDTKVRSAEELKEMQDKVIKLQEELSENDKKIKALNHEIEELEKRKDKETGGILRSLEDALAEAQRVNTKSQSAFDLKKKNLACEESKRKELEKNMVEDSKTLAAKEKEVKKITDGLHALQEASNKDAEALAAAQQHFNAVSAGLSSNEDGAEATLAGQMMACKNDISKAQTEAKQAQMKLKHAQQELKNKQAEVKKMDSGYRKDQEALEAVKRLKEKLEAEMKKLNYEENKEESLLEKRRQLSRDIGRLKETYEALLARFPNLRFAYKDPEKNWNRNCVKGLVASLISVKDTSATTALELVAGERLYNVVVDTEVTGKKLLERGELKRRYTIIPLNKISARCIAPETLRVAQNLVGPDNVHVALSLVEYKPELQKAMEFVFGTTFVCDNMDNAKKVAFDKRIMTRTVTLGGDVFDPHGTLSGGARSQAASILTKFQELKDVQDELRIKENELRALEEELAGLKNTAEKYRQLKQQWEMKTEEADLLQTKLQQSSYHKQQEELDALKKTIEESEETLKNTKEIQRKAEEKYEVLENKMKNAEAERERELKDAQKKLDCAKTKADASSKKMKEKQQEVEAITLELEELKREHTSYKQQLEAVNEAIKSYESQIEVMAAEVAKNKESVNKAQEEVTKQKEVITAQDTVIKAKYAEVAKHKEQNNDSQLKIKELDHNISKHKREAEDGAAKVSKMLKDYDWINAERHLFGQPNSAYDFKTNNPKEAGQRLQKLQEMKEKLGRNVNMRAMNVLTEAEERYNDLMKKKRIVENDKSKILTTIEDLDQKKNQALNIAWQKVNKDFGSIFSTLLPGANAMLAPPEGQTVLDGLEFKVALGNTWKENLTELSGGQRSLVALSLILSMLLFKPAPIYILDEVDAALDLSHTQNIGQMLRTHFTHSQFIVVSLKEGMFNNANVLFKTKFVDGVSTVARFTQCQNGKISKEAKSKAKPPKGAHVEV
T3 sequence (Q9NTJ3 whole entry, chain 2 of 3): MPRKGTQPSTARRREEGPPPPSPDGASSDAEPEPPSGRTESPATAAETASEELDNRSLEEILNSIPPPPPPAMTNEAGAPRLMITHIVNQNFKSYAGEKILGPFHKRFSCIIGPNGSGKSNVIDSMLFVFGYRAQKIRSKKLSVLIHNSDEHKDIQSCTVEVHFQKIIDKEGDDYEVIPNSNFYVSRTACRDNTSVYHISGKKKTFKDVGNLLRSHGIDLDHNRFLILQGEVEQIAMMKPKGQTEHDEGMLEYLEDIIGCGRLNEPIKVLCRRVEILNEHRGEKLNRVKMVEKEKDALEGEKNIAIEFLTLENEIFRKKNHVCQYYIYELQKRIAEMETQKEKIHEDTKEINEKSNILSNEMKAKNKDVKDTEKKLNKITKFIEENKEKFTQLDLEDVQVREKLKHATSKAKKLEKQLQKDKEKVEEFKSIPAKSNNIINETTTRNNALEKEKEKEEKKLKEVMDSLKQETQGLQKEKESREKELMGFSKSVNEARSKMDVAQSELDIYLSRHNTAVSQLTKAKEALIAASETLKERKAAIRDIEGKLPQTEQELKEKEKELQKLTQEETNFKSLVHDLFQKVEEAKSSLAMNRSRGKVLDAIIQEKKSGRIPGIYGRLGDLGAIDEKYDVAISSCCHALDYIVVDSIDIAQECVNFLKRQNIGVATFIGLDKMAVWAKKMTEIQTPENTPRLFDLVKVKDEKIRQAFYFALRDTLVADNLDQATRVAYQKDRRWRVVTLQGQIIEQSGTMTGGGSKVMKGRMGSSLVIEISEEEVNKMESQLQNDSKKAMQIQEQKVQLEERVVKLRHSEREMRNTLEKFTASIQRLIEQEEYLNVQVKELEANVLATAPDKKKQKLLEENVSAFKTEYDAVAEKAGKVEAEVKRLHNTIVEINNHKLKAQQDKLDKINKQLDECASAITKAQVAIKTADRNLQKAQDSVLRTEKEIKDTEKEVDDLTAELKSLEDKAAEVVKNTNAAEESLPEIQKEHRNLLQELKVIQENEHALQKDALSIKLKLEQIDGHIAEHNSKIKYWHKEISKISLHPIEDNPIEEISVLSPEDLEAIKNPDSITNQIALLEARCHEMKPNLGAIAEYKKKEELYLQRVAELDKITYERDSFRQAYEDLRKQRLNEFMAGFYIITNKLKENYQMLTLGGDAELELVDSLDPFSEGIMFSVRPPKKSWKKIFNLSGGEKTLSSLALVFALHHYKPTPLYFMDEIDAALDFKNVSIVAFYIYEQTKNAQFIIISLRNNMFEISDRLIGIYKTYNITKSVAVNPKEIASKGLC
T3 sequence (Q6IBW4 whole entry, chain 3 of 3): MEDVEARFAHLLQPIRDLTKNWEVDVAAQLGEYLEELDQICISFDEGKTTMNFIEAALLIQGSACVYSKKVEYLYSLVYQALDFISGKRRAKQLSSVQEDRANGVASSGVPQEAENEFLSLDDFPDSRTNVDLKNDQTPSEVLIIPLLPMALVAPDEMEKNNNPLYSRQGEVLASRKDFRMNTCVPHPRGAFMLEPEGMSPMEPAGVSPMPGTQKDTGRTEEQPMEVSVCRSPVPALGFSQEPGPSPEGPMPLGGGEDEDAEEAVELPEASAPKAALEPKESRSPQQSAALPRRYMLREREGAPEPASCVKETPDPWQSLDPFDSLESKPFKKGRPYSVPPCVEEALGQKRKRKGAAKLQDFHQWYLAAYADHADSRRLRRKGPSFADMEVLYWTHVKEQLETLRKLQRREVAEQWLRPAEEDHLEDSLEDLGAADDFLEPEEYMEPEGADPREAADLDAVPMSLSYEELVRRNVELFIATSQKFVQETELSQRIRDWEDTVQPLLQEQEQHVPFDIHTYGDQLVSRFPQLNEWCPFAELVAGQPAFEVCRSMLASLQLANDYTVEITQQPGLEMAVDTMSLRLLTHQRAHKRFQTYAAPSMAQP
T4 sequence (O95347 whole entry, chain 1 of 4): as the sequence (O95347 whole entry, chain 1 of 3) above
T4 sequence (Q9NTJ3 whole entry, chain 2 of 4): as the sequence (Q9NTJ3 whole entry, chain 2 of 3) above
T4 sequence (Q6IBW4 whole entry, chain 3 of 4): as the sequence (Q6IBW4 whole entry, chain 3 of 3) above
T4 sequence (P42695 whole entry, chain 4 of 4): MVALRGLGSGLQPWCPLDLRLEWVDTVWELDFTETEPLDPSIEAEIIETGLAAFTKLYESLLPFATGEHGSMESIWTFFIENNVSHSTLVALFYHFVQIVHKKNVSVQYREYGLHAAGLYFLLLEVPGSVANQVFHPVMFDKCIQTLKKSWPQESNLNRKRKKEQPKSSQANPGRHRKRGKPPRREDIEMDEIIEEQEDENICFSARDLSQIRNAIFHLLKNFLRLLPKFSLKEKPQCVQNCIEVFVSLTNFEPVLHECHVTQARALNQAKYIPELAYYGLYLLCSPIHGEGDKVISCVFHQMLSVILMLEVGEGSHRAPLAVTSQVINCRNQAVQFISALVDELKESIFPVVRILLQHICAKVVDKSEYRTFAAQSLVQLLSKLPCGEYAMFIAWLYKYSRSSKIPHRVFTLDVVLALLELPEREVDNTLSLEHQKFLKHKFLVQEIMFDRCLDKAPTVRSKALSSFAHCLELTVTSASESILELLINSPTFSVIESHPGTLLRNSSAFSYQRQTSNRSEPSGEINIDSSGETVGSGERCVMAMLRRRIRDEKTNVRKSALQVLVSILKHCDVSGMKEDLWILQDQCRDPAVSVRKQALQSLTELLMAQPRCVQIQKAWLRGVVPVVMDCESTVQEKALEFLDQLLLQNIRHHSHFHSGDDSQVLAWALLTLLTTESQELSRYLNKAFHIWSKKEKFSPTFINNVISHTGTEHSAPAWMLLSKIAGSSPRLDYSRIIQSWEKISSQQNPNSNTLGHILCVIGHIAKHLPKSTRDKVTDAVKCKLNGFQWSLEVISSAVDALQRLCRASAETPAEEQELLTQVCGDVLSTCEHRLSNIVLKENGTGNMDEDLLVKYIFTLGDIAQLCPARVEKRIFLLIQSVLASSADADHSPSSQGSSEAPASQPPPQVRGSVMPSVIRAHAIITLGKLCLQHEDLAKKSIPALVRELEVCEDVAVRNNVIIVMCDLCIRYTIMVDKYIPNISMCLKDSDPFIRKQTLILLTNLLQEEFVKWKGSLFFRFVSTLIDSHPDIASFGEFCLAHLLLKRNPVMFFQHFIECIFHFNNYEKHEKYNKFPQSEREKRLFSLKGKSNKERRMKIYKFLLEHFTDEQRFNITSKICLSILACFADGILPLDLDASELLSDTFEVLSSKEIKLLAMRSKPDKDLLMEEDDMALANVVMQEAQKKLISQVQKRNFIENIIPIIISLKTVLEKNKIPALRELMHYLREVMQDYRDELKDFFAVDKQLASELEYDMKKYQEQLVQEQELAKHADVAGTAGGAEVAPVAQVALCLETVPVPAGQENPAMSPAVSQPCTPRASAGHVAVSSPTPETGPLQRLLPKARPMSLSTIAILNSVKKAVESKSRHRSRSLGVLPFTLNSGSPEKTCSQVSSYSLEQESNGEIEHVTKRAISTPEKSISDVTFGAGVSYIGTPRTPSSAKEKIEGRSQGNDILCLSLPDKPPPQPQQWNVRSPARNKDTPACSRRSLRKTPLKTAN

B1: 50 bp dsDNA (dsDNA)
DNA 1: CTGTCACACCCTGTCACACCCTGTCACACCCTGTCACACCCTGTCACACC
DNA 2: GGTGTGACAGGGTGTGACAGGGTGTGACAGGGTGTGACAGGGTGTGACAG
binds: MCPH1 1-435-MBP | [1] | condensin II pentamer

B2: MCPH1_(1-435)-MBP (domain or fragment, human, UniProt Q8NEM0 1-435, looked up)
chain: T1 sequence
notes: the text says the tag was moved to the C-terminus for this experiment; source: E. coli BL21 (DE3) pLysS, purified (Ni-NTA, ion exchange or heparin); not shown: MBP, C-terminal, kept
binds: [2] | [3] | [4]
